Assay results reported in IntAct's records for PubMed 20798051.

Biological target: fgfr4_human FGFR4 (UniProt P22455)
UniProt P22455, sequence (P22455 whole entry, looked up): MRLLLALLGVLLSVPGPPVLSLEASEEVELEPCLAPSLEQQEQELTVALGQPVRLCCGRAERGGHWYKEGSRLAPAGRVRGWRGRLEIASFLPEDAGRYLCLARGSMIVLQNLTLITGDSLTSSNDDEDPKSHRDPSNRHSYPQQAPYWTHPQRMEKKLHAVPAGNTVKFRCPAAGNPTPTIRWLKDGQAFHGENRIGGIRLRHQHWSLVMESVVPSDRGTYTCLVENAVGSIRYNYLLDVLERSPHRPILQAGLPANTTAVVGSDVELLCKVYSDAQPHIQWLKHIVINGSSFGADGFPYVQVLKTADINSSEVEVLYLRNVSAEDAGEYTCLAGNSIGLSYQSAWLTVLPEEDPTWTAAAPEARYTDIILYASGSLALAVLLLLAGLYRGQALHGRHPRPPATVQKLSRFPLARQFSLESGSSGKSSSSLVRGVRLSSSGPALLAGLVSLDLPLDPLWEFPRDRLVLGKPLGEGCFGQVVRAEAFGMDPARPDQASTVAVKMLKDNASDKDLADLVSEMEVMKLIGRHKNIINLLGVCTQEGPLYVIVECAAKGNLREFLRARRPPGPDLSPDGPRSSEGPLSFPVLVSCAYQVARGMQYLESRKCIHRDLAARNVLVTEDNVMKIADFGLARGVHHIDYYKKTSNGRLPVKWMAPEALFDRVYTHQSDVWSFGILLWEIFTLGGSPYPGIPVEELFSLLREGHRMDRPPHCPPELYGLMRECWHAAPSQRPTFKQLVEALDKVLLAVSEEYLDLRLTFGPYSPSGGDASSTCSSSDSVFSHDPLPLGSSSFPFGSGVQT

Substance	effect of a mutation on the interaction
Matrix metalloproteinase-14 (Homo sapiens) (from UniProt P50281) Y573F	decreasing interaction
Matrix metalloproteinase-14 (Homo sapiens) (from UniProt P50281) E240A	decreasing interaction
